{"source": "paper PMC4109836", "about": "“Analysis of the co-operative interaction between the allosterically regulated proteins GK and GKRP using tryptophan fluorescence” (Biochemical Journal, 2014)", "molecules": {"B1": {"name": "GK-W99R/W167F/W257F: tryptophan residue-free, non-fluorescent recombinant human β-cell GK made for the present study (protein)", "chain": "MLDDRARMEAAKKEKVEQILAEFQLQEEDLKKVMRRMQKEMDRGLRLETHEEASVKMLPTYVRSTPEGSEVGDFLSLDLGGTNFRVMLVKVGEGEEGQRSVKTKHQMYSIPEDAMTGTAEMLFDYISECISDFLDKHQMKHKKLPLGFTFSFPVRHEDIDKGILLNFTKGFKASGAEGNNVVGLLRDAIKRRGDFEMDVVAMVNDTVATMISCYYEDHQCEVGMIVGTGCNACYMEEMQNVELVEGDEGRMCVNTEFGAFGDSGELDEFLLEYDRLVDESSANPGQQLYEKLIGGKYMGELVRLVLLRLVDENLLFHGEASEQLRTRGAFETRFVSQVESDTGDRKQIYNILSTLGLRPSTTDCDIVRRACESVSTRAAHMCSAGLAGVINRMRESRSEDVMRITVGVDGSVYKLHPSFKERFHASVRRLTPSCEITFIESEEGSGRGAALVSAVACKKACMLGQ", "modifications": "left off: GST, end not stated, cleaved", "notes": "tryptophan residue-free, non-fluorescent recombinant human β-cell GK made for the present study"}}, "key": {"GK-W99R/W167F/W257F": {"molecular_target": "T1, GK-W99R/W167F/W257F (Homo sapiens, UniProt P35557, W167F/W257F/W99R)", "T1 construct": "GST (cleaved yes); made in house; host or cells: Escherichia coli", "T1 sequence (P35557 1-465 W99R/W167F/W257F)": "B1 chain", "test": "Glucose binding to unbound GK-W99R/W167F/W257F"}, "GK-WT": {"molecular_target": "T2, GK-WT (Homo sapiens, UniProt P35557)", "T2 construct": "GST (cleaved yes); made in house; host or cells: Escherichia coli", "T2 sequence (P35557 1-465)": "B1 chain with R99W, F167W, F257W", "parameters": "method as in ref 4 (a number printed in a supplementary file, which may have a reference list of its own: not looked up in the article's list)", "settings": "cited from earlier work"}, "GK (glucokinase)": {"test_system": "GK (glucokinase)", "settings": "cited from earlier work"}, "GKRP-P446L": {"molecular_target": "T3, GKRP-P446L (Homo sapiens, UniProt P35557+Q14397, P446L/W167F/W257F/W99R)", "T3 construct": "FLAG; GST (cleaved yes); made in house; host or cells: Escherichia coli", "T3 sequence (Q14397 1-625 P446L)": "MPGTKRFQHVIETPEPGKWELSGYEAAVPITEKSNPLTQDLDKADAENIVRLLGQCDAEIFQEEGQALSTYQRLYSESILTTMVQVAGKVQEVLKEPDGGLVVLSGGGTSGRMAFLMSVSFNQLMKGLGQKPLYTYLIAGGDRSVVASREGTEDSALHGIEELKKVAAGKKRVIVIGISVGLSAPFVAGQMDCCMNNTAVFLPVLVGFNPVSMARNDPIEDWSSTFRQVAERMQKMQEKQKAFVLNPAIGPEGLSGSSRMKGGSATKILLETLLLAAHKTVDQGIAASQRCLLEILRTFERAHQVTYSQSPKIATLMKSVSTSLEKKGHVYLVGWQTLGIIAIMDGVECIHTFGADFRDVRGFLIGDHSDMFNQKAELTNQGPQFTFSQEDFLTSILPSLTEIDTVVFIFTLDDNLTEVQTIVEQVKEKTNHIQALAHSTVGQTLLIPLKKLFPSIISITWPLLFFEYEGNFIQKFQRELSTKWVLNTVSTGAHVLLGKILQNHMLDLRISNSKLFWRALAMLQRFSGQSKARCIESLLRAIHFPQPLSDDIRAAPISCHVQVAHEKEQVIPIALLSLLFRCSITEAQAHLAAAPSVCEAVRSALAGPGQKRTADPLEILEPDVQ", "T3 sequence (P35557 1-465 W99R/W167F/W257F)": "B1 chain", "test": "Titration of GKRP-P446L with GK-W99R/W167F/W257F (GK–GKRP complex assembly) by TF", "type": "binding", "parameters": "ΔF: scale not given here", "settings": "for Kd: read-out: S0.5 of GK", "procedure": "Spectra were measured with a Fluorolog-3-21 Jobin-Yvon Spex Instrument SA equipped with a 450 W Xenon lamp for excitation and a cooled R2658P Hamamatsu photomultiplier tube for detection. For all measurements, 90° geometry was employed and 295 nm excitation wavelengths were used to observe fluorescence emission in the 300–500 nm range. For TF, spectra slit width was set to provide a bandpath of 3 nm for excitation and 3 nm for emission. Spectra were corrected for instrumental response using Spex instrument software. A thermostatically controlled cell holder maintained sample temperature at 20°C. A thermocoupler was used to measure sample temperature. The buffer used contained 20 mM phosphate, 50 mM KCl, 1 mM EDTA and 1 mM DTT (pH 7.2).\nFluorescence data were obtained via the stepwise addition of the appropriate amount of non-fluorescent GK-W99R/W167F/W257F to GKRP in a fluorescence cuvette. […] The change in GKRP protein fluorescence during titration was also measured using time-dependent scans. A manual procedure was used such that a typical titration with 10–12 additions required 20–25 min to perform. The same buffer as described above was routinely used unless stated otherwise. The bandpath was 0.5 nm at 295 nm for excitation and 12 nm at 340 nm for emission. […] For some graphical presentations the linear form of the Hill equation was used: log[F/(Fsat−F)]=H log x−H log KD [46]."}, "[1]": {"settings": "GK titration with 20 μM GKA, 20°C"}, "[2]": {"settings": "GK titration with 500 μM F1P, 20°C"}, "[3]": {"settings": "GK titration with 500 μM F6P, sigmoidal fit, 20°C"}, "[4]": {"settings": "GK titration with 500 μM F6P, simple saturation fit (H = 1)"}, "[5]": {"settings": "GK titration with 100 mM D-glucose and 20 μM GKA, 20°C"}, "[6]": {"settings": "GK titration with 100 mM D-glucose and 500 μM F1P, 20°C"}, "[7]": {"settings": "GK titration with 100 mM D-glucose and 500 μM F6P, 20°C"}, "[8]": {"settings": "GK titration with 100 mM D-glucose, 20°C"}, "[9]": {"settings": "GK titration, no further agent, sigmoidal fit, 20°C"}, "[10]": {"settings": "GK titration, no further agent, simple saturation fit (H = 1)"}}, "note": "Positions count from the first letter of the chain named. In names and notes the source's numbering stands. Read-outs that look alike come from different tables or passages of the source.", "data": [{"molecule": "OC[C@H]1OC(O)[C@H](O)[C@@H](O)[C@@H]1O", "note": "(stereo partly drawn) [D-Glucose, D-glucose]", "values": [{"measurement": "Kd", "setting": "GK-W99R/W167F/W257F", "result": 5000, "unit": "µM"}, {"measurement": "H (glucose)", "setting": "GK-WT", "result": 1.77}, {"measurement": "glucose S0.5", "setting": "GK-WT", "result": 7.5, "unit": "mM"}, {"measurement": "Hill coefficient of GK with respect to glucose", "setting": "GK (glucokinase)", "result": "approximately 1.7"}, {"measurement": "affinity of GK for glucose", "setting": "GK (glucokinase)", "result": "approximately 7.5 mM"}]}, {"molecule": "B1", "values": [{"measurement": "H", "setting": "GKRP-P446L; [1]", "result": 2.17}, {"measurement": "ΔF", "setting": "GKRP-P446L; [1]", "result": 0.43}, {"measurement": "Kd", "setting": "GKRP-P446L; [1]", "result": 2.59, "unit": "µM"}, {"measurement": "H", "setting": "GKRP-P446L; [2]", "result": 2.84}, {"measurement": "ΔF", "setting": "GKRP-P446L; [2]", "result": 0.41}, {"measurement": "Kd", "setting": "GKRP-P446L; [2]", "result": 2.95, "unit": "µM"}, {"measurement": "H", "setting": "GKRP-P446L; [3]", "result": 1.31}, {"measurement": "ΔF", "setting": "GKRP-P446L; [3]", "result": 0.44}, {"measurement": "Kd", "setting": "GKRP-P446L; [3]", "result": 1.66, "unit": "µM"}, {"measurement": "H", "setting": "GKRP-P446L; GK titration with 500 μM F6P, simple saturation fit", "result": 1}, {"measurement": "ΔF", "setting": "GKRP-P446L; [4]", "result": 0.55}, {"measurement": "Kd", "setting": "GKRP-P446L; [4]", "result": 2.45, "unit": "µM"}, {"measurement": "H", "setting": "GKRP-P446L; [5]", "result": 2.68}, {"measurement": "ΔF", "setting": "GKRP-P446L; [5]", "result": 0.42}, {"measurement": "Kd", "setting": "GKRP-P446L; [5]", "result": 3.55, "unit": "µM"}, {"measurement": "H", "setting": "GKRP-P446L; [6]", "result": 2.77}, {"measurement": "ΔF", "setting": "GKRP-P446L; [6]", "result": 0.44}, {"measurement": "Kd", "setting": "GKRP-P446L; [6]", "result": 2.97, "unit": "µM"}, {"measurement": "H", "setting": "GKRP-P446L; [7]", "result": 2.45}, {"measurement": "ΔF", "setting": "GKRP-P446L; [7]", "result": 0.42}, {"measurement": "Kd", "setting": "GKRP-P446L; [7]", "result": 2.84, "unit": "µM"}, {"measurement": "H", "setting": "GKRP-P446L; [8]", "result": 2.94}, {"measurement": "ΔF", "setting": "GKRP-P446L; [8]", "result": 0.43}, {"measurement": "Kd", "setting": "GKRP-P446L; [8]", "result": 3.38, "unit": "µM"}, {"measurement": "H", "setting": "GKRP-P446L; [9]", "result": 1.86}, {"measurement": "ΔF", "setting": "GKRP-P446L; [9]", "result": 0.44}, {"measurement": "Kd", "setting": "GKRP-P446L; [9]", "result": 2.05, "unit": "µM"}, {"measurement": "H", "setting": "GKRP-P446L; GK titration, no further agent, simple saturation fit", "result": 1}, {"measurement": "ΔF", "setting": "GKRP-P446L; [10]", "result": 0.82}, {"measurement": "Kd", "setting": "GKRP-P446L; [10]", "result": 5.23, "unit": "µM"}, {"measurement": "maximal ΔTF value of GKRP-P446L", "setting": "GKRP-P446L; range under all conditions tested", "result": "0.41–0.44"}, {"measurement": "increase of the TF of GKRP-P446L", "setting": "GKRP-P446L; saturating GK (5 μM), 0.3 μM GKRP", "result": 44, "unit": "%"}]}]}
